Measurements taken from the supplement of paper PMC11316812.
± gives the standard deviation of the averaged measurements.

Experiments:
MCF7 = experiment: percentage of EdU-negative (G0-arrested) nuclei per well, 72 h; higher = more G0 arrest; conditions: reference: sequence is the full UniProt precursor, the tested protein was the secreted form or ectodomain
hTERT-HMEC = experiment: as above; conditions: reference: sequence is the full UniProt precursor, the tested protein was the secreted form or ectodomain
[1] = protein concentration 0.01025 µM
[2] = protein concentration 0.1025 µM
[3] = protein concentration 0.0225 µM
[4] = protein concentration 0.0085 µM
[5] = protein concentration 0.01207 µM
[6] = protein concentration 0.1207 µM
[7] = protein concentration 0.03125 µM
[8] = protein concentration 0.3125 µM
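Further: secreted proteins added to cultured cells, EdU pulse at the end, nuclei found by Hoechst imaging, EdU status from nuclear versus surrounding ring intensity ratio, PBS as neutral control.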

For “MAAATGPSFWLGNETLKVPLALFALNRQRLCERLRKNPAVQAGSIVVLQGGEETQRYCTDTGVLFRQESFFHWAFGVTEPGCYGVIDVDTGKSTLFVPRLPASHATWMGKIHSKEHFKEKYAVDDVQYVDEIASVLTSQKPSVLLTLRGVNTDSGSVCREASFDGISKFEVNNTILHPEIVECRVFKTDMELEVLRYTNKISSEAHREVMKAVKVGMKEYELESLFEHYCYSRGGMRHSSYTCICGSGENSAVLHYGHAGAPNDRTIQNGDMCLFDMGGEYYCFASDITCSFPANGKFTADQKAVYEAVLRSSRAVMGAMKPGVWWPDMHRLADRIHLEELAHMGILSGSVDAMVQAHLGAVFMPHGLGHFLGIDVHDVGGYPEGVERIDEPGLRSLRTARHLQPGMVLTVEPGIYFIDHLLDEALADPARASFLNREVLQRFRGFGGVRIEEDVVVTDSGIELLTCVPRTVEEIEACMAGCDKAFTPFSGPK”, the “percentage of EdU-negative” value (MCF7; [1]) was 26 ± 1%, the “percentage of EdU-negative” value (MCF7; [2]) was 27.3 ± 1.4% and the “percentage of EdU-negative” value (hTERT-HMEC; [1]) was 5.01 ± 0.5%. The “percentage of EdU-negative” value (hTERT-HMEC; [2]) was 4.28 ± 0.51%.
In the case of “MAARRSQRRRGRRGEPGTALLVPLALGLGLALACLGLLLAVVSLGSRASLSAQEPAQEELVAEEDQDPSELNPQTEESQDPAPFLNRLVRPRRSAPKGRKTRARRAIAAHYEVHPRPGQDGAQAGVDGTVSGWEEARINSSSPLRYNRQIGEFIVTRAGLYYLYCQVHFDEGKAVYLKLDLLVDGVLALRCLEEFSATAASSLGPQLRLCQVSGLLALRPGSSLRIRTLPWAHLKAAPFLTYFGLFQVH”, the “percentage of EdU-negative” value (MCF7; [3]) is reported as 24.6 ± 1.4%, the “percentage of EdU-negative” value (MCF7; protein concentration 0.225 µM) is reported as 24.3 ± 3.4% and the “percentage of EdU-negative” value (hTERT-HMEC; [3]) is reported as 12.2 ± 2.6%. The “percentage of EdU-negative” value (hTERT-HMEC; protein concentration 0.225 µM) was 13.4 ± 1.1%.
With “MALFAVFQTTFFLTLLSLRTYQSEVLAERLPLTPVSLKVSTNSTRQSLHLQWTVHNLPYHQELKMVFQIQISRIETSNVIWVGNYSTTVKWNQVLHWSWESELPLECATHFVRIKSLVDDAKFPEPNFWSNWSSWEEVSVQDSTGQDILFVFPKDKLVEEGTNVTICYVSRNIQNNVSCYLEGKQIHGEQLDPHVTAFNLNSVPFIRNKGTNIYCEASQGNVSEGMKGIVLFVSKVLEEPKDFSCETEDFKTLHCTWDPGTDTALGWSKQPSQSYTLFESFSGEKKLCTHKNWCNWQITQDSQETYNFTLIAENYLRKRSVNILFNLTHRVYLMNPFSVNFENVNATNAIMTWKVHSIRNNFTYLCQIELHGEGKMMQYNVSIKVNGEYFLSELEPATEYMARVRCADASHFWKWSEWSGQNFTTLEAAPSEAPDVWRIVSLEPGNHTVTLFWKPLSKLHANGKILFYNVVVENLDKPSSSELHSIPAPANSTKLILDRCSYQICVIANNSVGASPASVIVISADPENKEVEEERIAGTEGGFSLSWKPQPGDVIGYVVDWCDHTQDVLGDFQWKNVGPNTTSTVISTDAFRPGVRYDFRIYGLSTKRIACLLEKKTGYSQELAPSDNPHVLVDTLTSHSFTLSWKDYSTESQPGFIQGYHVYLKSKARQCHPRFEKAVLSDGSECCKYKIDNPEEKALIVDNLKPESFYEFFITPFTSAGEGPSATFTKVTTPDEHSSMLIHILLPMVFCVLLIMVMCYLKSQWIKETCYPDIPDPYKSSILSLIKFKENPHLIIMNVSDCIPDAIEVVSKPEGTKIQFLGTRKSLTETELTKPNYLYLLPTEKNHSGPGPCICFENLTYNQAASDSGSCGHVPVSPKAPSMLGLMTSPENVLKALEKNYMNSLGEIPAGETSLNYVSQLASPMFGDKDSLPTNPVEAPHCSEYKMQMAVSLRLALPPPTENSSLSSITLLDPGEHYC” the “percentage of EdU-negative” value (MCF7; [3]) was 26.44 ± 0.24%, the “percentage of EdU-negative” value (MCF7; protein concentration 0.225 µM) was 24.9 ± 2% and the “percentage of EdU-negative” value (hTERT-HMEC; [3]) was 4.25 ± 0.45%. For the same sequence, the “percentage of EdU-negative” value (hTERT-HMEC; protein concentration 0.225 µM) was 5.8 ± 0.95%.
With “MLLLFSVILISWVSTVGGEGTLCDFPKIHHGFLYDEEDYNPFSQVPTGEVFYYSCEYNFVSPSKSFWTRITCTEEGWSPTPKCLRMCSFPFVKNGHSESSGLIHLEGDTVQIICNTGYSLQNNEKNISCVERGWSTPPICSFTKGECHVPILEANVDAQPKKESYKVGDVLKFSCRKNLIRVGSDSVQCYQFGWSPNFPTCKGQVRSCGPPPQLSNGEVKEIRKEEYGHNEVVEYDCNPNFIINGPKKIQCVDGEWTTLPTCVEQVKTCGYIPELEYGYVQPSVPPYQHGVSVEVNCRNEYAMIGNNMITCINGIWTELPMCVATHQLKRCKIAGVNIKTLLKLSGKEFNHNSRIRYRCSDIFRYRHSVCINGKWNPEVDCTEKREQFCPPPPQIPNAQNMTTTVNYQDGEKVAVLCKENYLLPEAKEIVCKDGRWQSLPRCVESTAYCGPPPSINNGDTTSFPLSVYPPGSTVTYRCQSFYKLQGSVTVTCRNKQWSEPPRCLDPCVVSEENMNKNNIQLKWRNDGKLYAKTGDAVEFQCKFPHKAMISSPPFRAICQEGKFEYPICE [Q9BXR6]” the “percentage of EdU-negative” value (MCF7; protein concentration 0.024 µM) was 25.7 ± 0.37%, the “percentage of EdU-negative” value (MCF7; protein concentration 0.24 µM) was 30.6 ± 1.7% and the “percentage of EdU-negative” value (hTERT-HMEC; protein concentration 0.024 µM) was 4.32 ± 0.27%. The “percentage of EdU-negative” value (hTERT-HMEC; protein concentration 0.24 µM) was 5.71 ± 1.3%.
With “MVSQALRLLCLLLGLQGCLAAGGVAKASGGETRDMPWKPGPHRVFVTQEEAHGVLHRRRRANAFLEELRPGSLERECKEEQCSFEEAREIFKDAERTKLFWISYSDGDQCASSPCQNGGSCKDQLQSYICFCLPAFEGRNCETHKDDQLICVNENGGCEQYCSDHTGTKRSCRCHEGYSLLADGVSCTPTVEYPCGKIPILEKRNASKPQGRIVGGKVCPKGECPWQVLLLVNGAQLCGGTLINTIWVVSAAHCFDKIKNWRNLIAVLGEHDLSEHDGDEQSRRVAQVIIPSTYVPGTTNHDIALLRLHQPVVLTDHVVPLCLPERTFSERTLAFVRFSLVSGWGQLLDRGATALELMVLNVPRLMTQDCLQQSRKVGDSPNITEYMFCAGYSDGSKDSCKGDSGGPHATHYRGTWYLTGIVSWGQGCATVGHFGVYTRVSQYIEWLQKLMRSEPRPGVLLRAPFP” the “percentage of EdU-negative” value (MCF7; [4]) was 24.3 ± 4.2%, the “percentage of EdU-negative” value (MCF7; protein concentration 0.085 µM) was 24.2 ± 0.32% and the “percentage of EdU-negative” value (hTERT-HMEC; [4]) was 4.77 ± 0.36%. For the same sequence, the “percentage of EdU-negative” value (hTERT-HMEC; protein concentration 0.085 µM) was 5.93 ± 1.7%.
In the case of “MALFVRLLALALALALGPAATLAGPAKSPYQLVLQHSRLRGRQHGPNVCAVQKVIGTNRKYFTNCKQWYQRKICGKSTVISYECCPGYEKVPGEKGCPAALPLSNLYETLGVVGSTTTQLYTDRTEKLRPEMEGPGSFTIFAPSNEAWASLPAEVLDSLVSNVNIELLNALRYHMVGRRVLTDELKHGMTLTSMYQNSNIQIHHYPNGIVTVNCARLLKADHHATNGVVHLIDKVISTITNNIQQIIEIEDTFETLRAAVAASGLNTMLEGNGQYTLLAPTNEAFEKIPSETLNRILGDPEALRDLLNNHILKSAMCAEAIVAGLSVETLEGTTLEVGCSGDMLTINGKAIISNKDILATNGVIHYIDELLIPDSAKTLFELAAESDVSTAIDLFRQAGLGNHLSGSERLTLLAPLNSVFKDGTPPIDAHTRNLLRNHIIKDQLASKYLYHGQTLETLGGKKLRVFVYRNSLCIENSCIAAHDKRGRYGTLFTMDRVLTPPMGTVMDVLKGDNRFSMLVAAIQSAGLTETLNREGVYTVFAPTNEAFRALPPRERSRLLGDAKELANILKYHIGDEILVSGGIGALVRLKSLQGDKLEVSLKNNVVSVNKEPVAEPDIMATNGVVHVITNVLQPPANRPQERGDELADSALEIFKQASAFSRASQRSVRLAPVYQKLLERMKH”, the “percentage of EdU-negative” value (MCF7; [5]) is reported as 25.4 ± 0.46%, the “percentage of EdU-negative” value (MCF7; [6]) is reported as 28.3 ± 0.63% and the “percentage of EdU-negative” value (hTERT-HMEC; [5]) is reported as 5.243 ± 0.015%. For the same sequence, the “percentage of EdU-negative” value (hTERT-HMEC; [6]) was 4.82 ± 0.7%.
“MKVVPSLLLSVLLAQVWLVPGLAPSPQSPETPAPQNQTSRVVQAPKEEEEDEQEASEEKASEEEKAWLMASRQQLAKETSNFGFSLLRKISMRHDGNMVFSPFGMSLAMTGLMLGATGPTETQIKRGLHLQALKPTKPGLLPSLFKGLRETLSRNLELGLTQGSFAFIHKDFDVKETFFNLSKRYFDTECVPMNFRNASQAKRLMNHYINKETRGKIPKLFDEINPETKLILVDYILFKGKWLTPFDPVFTEVDTFHLDKYKTIKVPMMYGAGKFASTFDKNFRCHVLKLPYQGNATMLVVLMEKMGDHLALEDYLTTDLVETWLRNMKTRNMEVFFPKFKLDQKYEMHELLRQMGIRRIFSPFADLSELSATGRNLQVSRVLQRTVIEVDERGTEAVAGILSEITAYSMPPVIKVDRPFHFMIYEETSGMLLFLGRVVNPTLL [Q9UK55]” was tested, and the “percentage of EdU-negative” value (MCF7; [7]) was 24.6 ± 0.79%, the “percentage of EdU-negative” value (MCF7; [8]) was 29.5 ± 0.31% and the “percentage of EdU-negative” value (hTERT-HMEC; [7]) was 4.46 ± 0.39%. The “percentage of EdU-negative” value (hTERT-HMEC; [8]) was 11.5 ± 0.79%.
“MRLSWFRVLTVLSICLSAVATATGAEGKRKLQIGVKKRVDHCPIKSRKGDVLHMHYTGKLEDGTEFDSSLPQNQPFVFSLGTGQVIKGWDQGLLGMCEGEKRKLVIPSELGYGERGAPPKIPGGATLVFEVELLKIERRTEL” was tested, and the “percentage of EdU-negative” value (MCF7; [3]) was 25.5 ± 0.037%, the “percentage of EdU-negative” value (MCF7; protein concentration 0.225 µM) was 29.219 ± 0.017% and the “percentage of EdU-negative” value (hTERT-HMEC; [3]) was 4.9 ± 1.4%. For the same sequence, the “percentage of EdU-negative” value (hTERT-HMEC; protein concentration 0.225 µM) was 6.25 ± 0.1%.
